This experiment has as its target Epidermal growth factor receptor of HCT-116 cells (human (HCT-116, a human colon cancer cell line)) (UniProt P00533). Description: cell-based or functional assay.

In turn, “ERRP fusion protein bound to MBP (from UniProt Q01279 25-448)” displayed an EGF-R Tyr-K activity in HCT-116 cells (reduction against cells exposed to MBP alone or control cells) of 80 to 90%.

(Values after patent publication US20020045215A1.)
